Experiment: soluble on expression in E. coli; label from the status in PepcDB or PDB records

Sequence	soluble on expression in E. coli
MKSPAPSRPQKMALIPACIFLCFAALSVQAEETPVTPQPPDILLGPLFNDVQNAKLFPDQKTFADAVPNSDPLMILADYRMQQNQSGFDLRHFVNVNFTLPKEGEKYVPPEGQSLREHIDGLWPVLTRSTENTEKWDSLLPLPEPYVVPGGRFREVYYWDSYFTMLGLAESGHWDKVADMVANFAHEIDTYGHIPNGNRSYYLSRSQPPFFALMVELLAQHEGDAALKQYLPQMQKEYAYWMDGVENLQAGQQEKRVVKLQDGTLLNRYWDDRDTPRPESWVEDIATAKSNPNRPATEIYRDLRSAAASGWDFSSRWMDNPQQLNTLRTTSIVPVDLNSLMFKMEKILARASKAAGDNAMANQYETLANARQKGIEKYLWNDQQGWYADYDLKSHKVRNQLTAAALFPLYVNAAAKDRANKMATATKTHLLQPGGLNTTSVKSGQQWDAPNGWAPLQWVATEGLQNYGQKEVAMDISWHFLTNVQHTYDREKKLVEKYDVSTTGTGGGGGEYPLQDGFGWTNGVTLKMLDLICPKEQPCDNVPATRPTVKSATTQPSTKEAQPTP	not soluble
MKSTEKKELSHFRLKLETYLNEHFPEMSGNNPFITARSDEALTAYCDAVAQGFSHPEAESMASEVLYQGLHFSRYDTLVSVLEREFEQELPSPLPERLAPILLKNKAIQSVFAKYDLTDDFEASPEYEHLYTELTGTIVLLIESNHLPTIGGGNDTV	soluble
MKTCFLSIWRVVDPIYFFFSRLSLIDNDQKSVFRVRLTKYKGHHVVLSDGTHIRKNDVLVKIHLHNIKLIRELQSIESAVRKGIIIYQKVYPSMPLLLDYINNHKKSEKIKGNHWITMLDKGVERLGFDVITPVNPFYRCFKKVSHVPILYLTSKPVSLRHLPNSSYLFISKEKLQKTYQKKDMAGDPLEHHHHHH	not soluble
MKTDGEFVSEHLMELITQQNLTINRVATLAGLNQSTVNAMFEGRSKRPTITTIRKVCGTLGISVHDFFDFPPYNEVEK	soluble
MKTHQYELIDEKVFEHEFDNGLKLFIIPKPGFQKTYVTYTTQFGSLDNHFKPIGSQQFVKVPDGVAHFLEHKLFEKEDEDLFTAFAEENAQANAFTSFDRTSYLFSATSNIESNIKRLLNMVETPYFTEETVNKEKGIIAEEIKMYQEQPGYKLMFNTLRAMYSKHPIRVDIAGSVESIYEITKDDLYLCYETFYHPSNMVLFVVGDVSPQSIIKLVEKH	not soluble
MKTIGILGGMGPLATAELFRRIVIKTPAKRDQEHPKVIIFNNPQIPDRTAYILGKGEDPRPQLIWTAKRLEECGADFIIMPCNTAHAFVEDIRKAIKIPIISMIEETAKKVKELGFKKAGLLATTGTIVSGVYEKEFSKYGVEIMTPTEDEQKDVMRGIYEGVKAGNLKLGRELLLKTAKILEERGAECIIAGCTEVSVVLKQDDLKVPLIDPMDVIAEVAVKVALEK	soluble
MKTITQQYLTGERALFKAHDLEIDNTTFADGESPLKESRNVTLKQPIFKWKYPLWYSQHVTVDQGLFETMSRSGIWYTKDITITNSTLQAPKLFRRASQVKLAHVHFSDAEETLWNCQDITLNDVQAAGDYFGMNSQNIRIDGFNLVGNYAFDGAKNVEIHHATLMTKDALWNCENVTVYDSQIIGEYLGWNSKNIRFVNCTIESDQGLCYMDNVKLENCTLLNTDLAFEYCRNIDADVVSTIDSVKNPLSGRIHAQAIGEIIMDDPEVDPHQTLISVDHESRAPHAV	not soluble
MKTKTARLFALTALTAATTMPLAAQVSAQEASPREATISVSGEGQAAIAPDMAILSFSVVKQAETAAAALTENSKALAEVLKALKEAAIEDRDLQTSNFSVQPLYKHYEPKDGVYVAPEITGYQVSNGLTVRVRDLKMLGTILDTSVKLGINQGGDITFTNDKPEATVTEARKQAVADAIAKAKTLTEAAGVKLGRVIQISENSQRPMPVPAGMMRASMMKEADSVPIASGENNYSVVVNVTFALDQ	not soluble
MKTTTATNSILFKLYFAPGATEQISIEYYNLQQLIEKLELKLGELGLNFNVVFWKNDKGNLISMSQNAQRVLKKMANRDSASIFVIADSDSSDSSSDSSDSGDEDVIIADAPEVAPHRRHCGRRDRSRSRGFDRSRSRSRSRSNFHDHHKRHQMKKLMWKRFQESHGHPEFKRRHCFGGRRARSASPIGRRPCREGEEFKRHPLGSFGTPCGREEFEGPTGGFGRPFGRRGMDHHGFNFHRHHHPFGAFHGFGGHHHGFGHGFGHHGFKRQHPFERRFGRC	not soluble
MKTYRIRKPKIVVVGGGTGLPVILKSLRNQSVDITAVVTVADDGGSSGELRSSINNMTPPGDLRNVLVALSDMPQLYEDIFQYRFDKSDSHFANHAIGNLIIAAVSEMRGSTYEAIQLLSKMMHVDGRIYPSSERPLTLHAVFKDGSVAVGESKIALDRKTIDHVFVTNTHGEEQPRAARKVVKAIEEADMVVLGPGSLFTSILPNLVITEIGEAIKQTAAEVVYICNIMTQKGETEHFTDADHVRVLNEHLQAQFVDTVLVNTEKVPENYMDPEIYDEYLVQVKHDFQGLREEGCRVISTDFLELRDGGVFHDGEKVVEELFRIVFGTKYLEHHHHHH	soluble
MKVAIVGVSGAVGQEFLRVLDERNFPMDELVLFGSKRSAGTTYTFRGKQIEVKLLQHNDDFKGVDIAFTSAGAGTSKEFEKTITKYGAVMIDNSSAFRMDADVPLVVPEVNAADALERPRGVIANPNCTTIQMVVALKAIEQLSHIKTVHVSTYQAASGAGAAAMDELYEQYRQVLANEPVTVEKFAYQLAFNLIPQIDVFTENGYTKEEMKMYNETRKIMHSDVKVSATCVRVPALRAHSESIWVETERPISVEEAREAFAKGEGLVLQDNPAEKEYPMPLFLAGKDPVYVGRIRKDLTNENGLTFWIVGDQIKKGAALNAVQIAEYLIKVKNV	not soluble
MKVFDVHKFDMKKEQDFLQVQFNLKNRINLSPTIHPDSINTGAGVDLAYWEQDGEPYGVCCIIVIDADTKEVIEKVHSMGRISVPYVSGFLAFRELPLIIEAAKKLETEPDVFLFDGNGYLHYNHMGVATHAAFFLGKPTIGIAKTYLKIKGCDFVTPEIEVGAYTDIIIDGEVYGRALRTRRDVKPIFLSCGNYIDLDSSYQITMSLINQESRLPIPVRLADLETHVLRTFYQKNHVLEHHHHHH	soluble
MKVFTEKIPNIPWEERPEGYTGPVWRYSKNPIIGRNPVPKGARVFNSAVVPYNGEFVGVFRIDHKNTRPFLHFGRSKDGINWEIEPEEIQWVDVNGEPFQPSYAYDPRVVKIEDTYYITFCTDDHGPTIGVGMTKDFKTFVRLPNAYVPFNRNGVLFPRKINGKYVMLNRPSDNGHTPFGDIFLSESPDMIHWGNHRFVLGRSSYNWWENLKIGAGPYPIETSEGWLLIYHGVTLTCNGYVYSFGAALLDLDDPSKVLYRSRYYLLTPEEEYETVGFVPNVVFPCAALCDADTGRVAIYYGAADTHVALAFGYIDEIVDFVKRNSM	not soluble
MKVGIVGGGIVGLFTAYYLAKEGIKDIIIYEKGFLGAGSIHAAGLIEPYRFDKINTLSMIKKMLKYKMNGSTDIKEVDKLWLVELIKNLEKDPPGEAWDTMREMAKFSLSEYKRIAEEKNDFDYHEDGLLELYYNSKEFESGIEDEKKSPFNPKFEIEEIKGFAGGLFFPELSRISTEKFIDRISREIVSNIKVKNEEVIKVSDEGYIDGEKYDLVVVAAGIWSRILKIPLTAFKGYGYRVKGVSKLNRAAVIVDYGLAISPLSDHIKITGGFDADFSIDSKRAEDFLKKAEELVDIQYIIDLNMGFRPCSPDGFPVIGKRNNLVLVTGACRLGWSYGPAMGRYATDLALGKAKDLGYISRYYHELEHHHHHH	not soluble
MKVHNDFTLYWRVFPSGKKVVYYYAYDESGKRLMGRSTGETNLTSARVKCNKLLKEGELVPNKNHVPTFAEYAEGWWEWETCAYLKKRRKRYSLTQTYADNNKKNLKNHLLPFFGNMPMNKITKIEVEDFFDALIEKEYQNTSINGFYGTLKTMLIEAVERNIIPKDPTDKMGRLVNDRRAIKIITPEEFKKLFVGDWRRVWESDRLSYTANKLAALTGMRASEVVGLKGSFVYDEHIYLCMQYDDYGYRPTKTKDKHNIPLTSDMINELKELKRMNGDGFVFSLDGGATPICRNTVYKHFHRALRNIGITEDEISERHLHLHAWRHFFNTEMLKGGLTVTQAQAVTGHKSERMTEWYCHFDPTEFAKAKEVQEALLRPAQKKAAKEEKAGAKTSGNKDKAVKVIPFPRKENKTAGEETQASLILPLPIFKAPAGLRRELLFLPFQHFPFFFLNCRFVPFLSATGHGIFKAGMGESMEEYLTIFEVAELTKYTVGTLRKFVQKRRVAFHKWGRSLRFRRAEIELWMKMGCGKAVYLPADGDGQTKASAMEIGAES	not soluble
MKVIKGLTAGLIFLFLCACGGQQIKDPLNYEVEPFTFQNQDGKNVSLESLKGEVWLADFIFTNCETICPPMTAHMTDLQKKLKAGNIDVRIISFSVDPENDKPKQLKKFAANYPLSFDNWDFLTGYSQSEIEEFALKSFKAIVKKPEGEDQVIHQSSFYLVGPDGKVLKDYNGVENTPYDDIISDVKSASTLKLEHHHHHH	not soluble
MKVKEHCGIVGVYADNSPMISYESLKLLQHRGQESAGITYRKDGSLVTMKGLGLVEEALDPRLLPNAKLSIGHVRYSTTGKGSLDEAQPLSNGKIAIAFNGTITNYFKFGTSTDTEFILKVLSEAPNIKEGIRRLVDLADGAYSLVVLTNEGELIGFRDPKGFRPLVLGKINNGYIIASEDSVIRQLGGKPLRDVKPGEMIYIKDGEIESEVISRDRVSFCSFEYIYFARPDSIIDGVSVYNSRIKLGEILAENHGVDADVAIPVPESSIPIAIGFSRKSKIPMEYGLIRTLVAKRSFIMPTQDKRNAVLEEKFGIVKSVVENKKVVVIDDSIVRGNTMRKIVRMIRDNGAKEVHVRIGSPKVKYPCYMGIDFPLSKELIASEKDEKEIAKYIGADSVEFLTVEEMIKAIGRPDLCHACFSGVYPLKFSYNLQVLESIFKKVS	soluble
MKVLFLTANEFEDVELIYPYHRLKEEGHEVYIASFERGTITGKHGYSVKVDLTFDKVNPEEFDALVLPGGRAPERVRLNEKAVSIARKMFSEGKPVASICHGPQILISAGVLRGRKGTSYPGIKDDMINAGVEWVDAEVVVDGNWVSSRVPADLYAWMREFVKLLK	soluble
MKVLIDTNVILDVLLNRASFVQDAIAVLELTCGNIQAYVSASAITDIYYIAYKELRDKIRVKNLIKTLLQIITVAGISDKEIMSAIDSDWADFEDSLQNAVAESHDCSMIITRNISDFNGSNLQIISPKDFIVQFTHLEHHHHHH	not soluble
MKVSKIYTTIDAHVAGEPLRIITGGVPEIKGETQLERRAYCMEHLDYLREILMYEPRGHHGMYGCIITPPASAHADFGVLFMHNEGWSTMCGHGIIAVITVGIETGMFEVTGEKQKFIIDSPAGEVIAYATYSGSEVESVSFENVPSFVYKKDVPIKIDSYEFQVDIAFGGAFYAVVDSKEFGLKVDFKDLSAIQMWGGKIKHYIESKMEVKHPLEEGLKGIYGVIFSDDPKEKDATLRNVTIFADGQVDRSPCGTGTSARIATLFAKDALQKGEIFVHECITDGKFEGEVLSVTAVHTYEAVVPKVTGNAFITGFHQFVVDPRDDLNRGFLLGLEHHHHHH	not soluble
MKVTNLFKDKVDAISAHQSEFMNWMSPTLRDYWSDFLGKAQNSFLFSNVRDHNQPAVNEEVAPQPAPIVLQPEAQKLYDELSGKIGEVIHTGDWVHVSQERINQFGAVTEDMQWIHTDPERASVESPFKTTIAHGFLTLALLPKLTDSVDADKPLFPTAKLVVNLGLNQVRFPYPVKAGNNVRAVSTLTKVTPIKKGLEIEREIKVEIEGVRRPGAVVVSVIQLHFLEHHHHHH	soluble
